Assay results as given in patent publication US20210130471A1 (DRAGONFLY THERAPEUTICS, published 2021).

Experiments:
[1] = biological target: T1, human NKG2D expressed on EL4 cells (Example 8) (human, UniProt P26718 1-216); assay: flow cytometry on EL4 cells expressing human NKG2D
T1 construct: whole, on cells; also called extracellular NKG2D expressed on EL4 cells
T1 sequence (looked up): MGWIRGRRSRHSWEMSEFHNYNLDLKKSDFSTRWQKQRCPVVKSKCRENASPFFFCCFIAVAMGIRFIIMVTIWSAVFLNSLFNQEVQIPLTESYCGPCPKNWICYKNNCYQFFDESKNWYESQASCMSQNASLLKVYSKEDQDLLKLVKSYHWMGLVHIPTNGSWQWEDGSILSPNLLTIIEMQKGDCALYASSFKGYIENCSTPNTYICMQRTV
Method: EL4 mouse lymphoma cell lines were engineered to express human NKG2D. […] The binding of the multi-specific binding proteins to NKG2D was detected using fluorophore-conjugated anti-human IgG secondary antibodies. Cells were analyzed by flow cytometry, and fold-over-background (FOB) was calculated using the mean fluorescence intensity (MFI) of NKG2D-expressing cells compared to parental EL4 cells.

[2] = biological target: T2, CD33 expressed on human AML cells (MV4-11, Molm-13) (human, UniProt P20138 18-364); assay: flow cytometry on Molm-13 and MV4-11 human AML cells
T2 construct: In the assay the endogenous CD33 of the human AML cell lines was the target; also called cell surface CD33; tumor associated antigen CD33
T2 sequence (P20138 18-364 limits assumed): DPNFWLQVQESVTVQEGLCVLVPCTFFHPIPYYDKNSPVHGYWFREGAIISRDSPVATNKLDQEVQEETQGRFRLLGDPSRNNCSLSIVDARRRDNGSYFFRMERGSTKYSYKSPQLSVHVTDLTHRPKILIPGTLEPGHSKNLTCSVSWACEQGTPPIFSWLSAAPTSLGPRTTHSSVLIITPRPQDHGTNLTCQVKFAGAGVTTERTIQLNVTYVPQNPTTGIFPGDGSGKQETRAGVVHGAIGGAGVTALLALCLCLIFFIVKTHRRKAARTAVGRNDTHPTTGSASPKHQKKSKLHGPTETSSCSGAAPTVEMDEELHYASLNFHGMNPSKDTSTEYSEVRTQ
Method: Human AML cell line MV4-11 and Molm-13 expressing CD33 were used to assay the binding of TriNKETs to the tumor associated antigen CD33. TriNKETs and optionally the parental anti-CD33 monoclonal antibody were incubated with the cells, and the binding was detected using fluorophore-conjugated anti-human IgG secondary antibodies. Cells were analyzed by flow cytometry, and fold-over-background (FOB) was calculated using the mean fluorescence intensity (MFI) from the TriNKETs and the parental monoclonal anti-CD33 antibody normalized to secondary antibody controls. […] The TriNKETs show binding to cell surface CD33 on MV4-11 (FIGS. 36A, 36B, and 36D) and Molm-13 cells (FIG. 36C).

Binder | binding result [1] | binding result [2]
CD33-TriNKET-C26 (ADI-28226 and a CD33-binding domain) (bispecific antibody, V domains shown) VH 1: QVQLQQWGAGLLKPSETLSLTCAVYGGSFSGYYWSWIRQPPGKGLEWIGEIDHSGSTNYNPSLKSRVTISVDTSKNQFSLKLSSVTAADTAVYYCARARGPWSFDPWGQGTLVTVSS VL 1: DIQMTQSPSTLSASVGDRVTITCRASQSISSWLAWYQQKPGKAPKLLIYKASSLESGVPSRFSGSGSGTEFTLTISSLQPDDFATYYCQQYGSFPITFGGGTKVEIK VH 2: QVQLVQSGAEVKKPGASVKVSCKASGYTFTDYVVHWVRQAPGQGLEWMGYINPYNDGTKYNEKFKGRVTMTRDTSISTAYMELSRLRSDDTAVYYCARDYRYEVYGMDYWGQGTLVTVSS VL 2: DIVLTQSPASLAVSPGQRATITCTASSSVNYIHWYQQKPGQPPKLLIYDTSKVASGVPARFSGSGSGTDFTLTINPVEANDTANYYCQQWRSYPLTFGQGTKLEIK | binds | –
parental anti-CD33 monoclonal antibody (antibody, V domains shown, Detected with anti-human IgG; also called parental monoclonal anti-CD33 antibody; parental anti-CD33 antibody) VH: QVQLVQSGAEVKKPGASVKVSCKASGYTFTDYVVHWVRQAPGQGLEWMGYINPYNDGTKYNEKFKGRVTMTRDTSISTAYMELSRLRSDDTAVYYCARDYRYEVYGMDYWGQGTLVTVSS VL: DIVLTQSPASLAVSPGQRATITCTASSSVNYIHWYQQKPGQPPKLLIYDTSKVASGVPARFSGSGSGTDFTLTINPVEANDTANYYCQQWRSYPLTFGQGTKLEIK | – | binds
CD33-TriNKET-A49 (ADI-27749 and a CD33-binding domain) (bispecific antibody, V domains shown) VH 1: EVQLVESGGGLVKPGGSLRLSCAASGFTFSSYSMNWVRQAPGKGLEWVSSISSSSSYIYYADSVKGRFTISRDNAKNSLYLQMNSLRAEDTAVYYCARGAPMGAAAGWFDPWGQGTLVTVSS VL 1: DIQMTQSPSSVSASVGDRVTITCRASQGISSWLAWYQQKPGKAPKLLIYAASSLQSGVPSRFSGSGSGTDFTLTISSLQPEDFATYYCQQGVSFPRTFGGGTKVEIK VH 2: QVQLVQSGAEVKKPGASVKVSCKASGYTFTDYVVHWVRQAPGQGLEWMGYINPYNDGTKYNEKFKGRVTMTRDTSISTAYMELSRLRSDDTAVYYCARDYRYEVYGMDYWGQGTLVTVSS VL 2: DIVLTQSPASLAVSPGQRATITCTASSSVNYIHWYQQKPGQPPKLLIYDTSKVASGVPARFSGSGSGTDFTLTINPVEANDTANYYCQQWRSYPLTFGQGTKLEIK | binds | –
CD33-TriNKET-A44 (ADI-27744 and a CD33-binding domain) (bispecific antibody, V domains shown) VH 1: not shown VL 1: DIQMTQSPSSVSASVGDRVTITCRASQGIDSWLAWYQQKPGKAPKLLIYAASSLQSGVPSRFSGSGSGTDFTLTISSLQPEDFATYYCQQGVSYPRTFGGGTKVEIK VH 2: QVQLVQSGAEVKKPGASVKVSCKASGYTFTDYVVHWVRQAPGQGLEWMGYINPYNDGTKYNEKFKGRVTMTRDTSISTAYMELSRLRSDDTAVYYCARDYRYEVYGMDYWGQGTLVTVSS VL 2: DIVLTQSPASLAVSPGQRATITCTASSSVNYIHWYQQKPGQPPKLLIYDTSKVASGVPARFSGSGSGTDFTLTINPVEANDTANYYCQQWRSYPLTFGQGTKLEIK | binds | –
CD33-TriNKET-F47 (ADI-29447 and a CD33-binding domain) (bispecific antibody, V domains shown) VH 1: QVQLQQWGAGLLKPSETLSLTCAVYGGSFSGYYWSWIRQPPGKGLEWIGEIDHSGSTNYNPSLKSRVTISVDTSKNQFSLKLSSVTAADTAVYYCARARGPWSFDPWGQGTLVTVSS VL 1: DIQMTQSPSTLSASVGDRVTITCRASQSISSWLAWYQQKPGKAPKLLIYKASSLESGVPSRFSGSGSGTEFTLTISSLQPDDFATYYCQQYDTFITFGGGTKVEIK VH 2: QVQLVQSGAEVKKPGASVKVSCKASGYTFTDYVVHWVRQAPGQGLEWMGYINPYNDGTKYNEKFKGRVTMTRDTSISTAYMELSRLRSDDTAVYYCARDYRYEVYGMDYWGQGTLVTVSS VL 2: DIVLTQSPASLAVSPGQRATITCTASSSVNYIHWYQQKPGQPPKLLIYDTSKVASGVPARFSGSGSGTDFTLTINPVEANDTANYYCQQWRSYPLTFGQGTKLEIK | binds | –
